In US20260193348A1 (ANTENGENE BIOLOGICS, published 2026):
Each block holds one binder with its values, some of them ahead of it.

Experiments:
[1] = biological target: T1, CD3 on T cells / Jurkat cells (human, UniProt P07766 23-207; P04234 22-171; P09693 23-182); experiment: FACS on Jurkat cells
T1 construct: whole, on cells; Native CD3 complex on CD3+ T cells isolated from normal donors or on Jurkat cells; also called human CD3; CD3+ T cells

GPRC5D on MM.1S cells [2] = biological target: T2, GPRC5D on MM.1S cells (human, UniProt Q9NZD1 1-345); experiment: FACS on MM.1S cells
T2 construct: whole, on cells; MM.1S is called a GPRC5D positive expressed cell line and human multiple myeloma cells; also called G-protein coupled receptor family C group 5 member D
T2 sequence (Q9NZD1 whole entry): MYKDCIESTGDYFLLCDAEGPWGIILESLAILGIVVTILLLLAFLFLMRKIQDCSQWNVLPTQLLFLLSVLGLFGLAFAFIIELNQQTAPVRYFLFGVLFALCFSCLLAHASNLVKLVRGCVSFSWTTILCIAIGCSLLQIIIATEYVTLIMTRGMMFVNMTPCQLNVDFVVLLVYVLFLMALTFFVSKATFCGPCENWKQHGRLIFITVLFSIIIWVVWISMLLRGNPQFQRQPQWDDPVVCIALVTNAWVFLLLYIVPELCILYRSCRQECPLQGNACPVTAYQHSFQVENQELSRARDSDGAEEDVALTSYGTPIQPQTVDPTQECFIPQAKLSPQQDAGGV
Description: The binding affinities of the generated humanized Fab-scFv-Fab bispecific antibodies were determined by FACS analysis. […] (a) Jurkat cells were washed by Staining Buffer (PBS+1% BSA) in round bottom 96-well plate. [0833] (b) Antibody dilutions and cells were added to each well, incubated at 4 degrees for 1 hour. [0834] (c) Cells were spined down at 300 g for 3 minutes, and the supernatants were discarded. [0835] (d) Cells were washed with Staining Buffer. […] (e) Step (d) was repeated and the cells were incubated for 0.5 hours at 4 degrees with secondary antibody in Staining Buffer. [0837] (f) After incubation, step (d)-(e) were repeated. […] (g) Staining Buffer was added and fluorescence signals were recorded by flow cytometry.
The binding affinities of the generated humanized Fab-scFv-Fab bispecific antibodies were determined by FACS analysis. The ATG-Bis-40E9 was used as positive control and hIgG1 isotype was used as negative control. The protocol for FACS analysis is identical to that described in Example 3.2, except that MM.1S cells were used in this example.

GPRC5D on MM.1S cells [3] = biological target: T2, GPRC5D on MM.1S cells; experiment: cell-based or functional assay
GPRC5D on MM.1S cells [4] = biological target: T2, GPRC5D on MM.1S cells; experiment: cell-based or functional assay; remark: listed apart in the source

T1 sequence (P07766 23-207, chain 1 of 3): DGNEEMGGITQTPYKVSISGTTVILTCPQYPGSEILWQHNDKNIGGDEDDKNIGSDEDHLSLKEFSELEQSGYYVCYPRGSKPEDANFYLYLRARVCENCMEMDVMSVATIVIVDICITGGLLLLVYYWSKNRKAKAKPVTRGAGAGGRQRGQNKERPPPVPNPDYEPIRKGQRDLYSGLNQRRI
T1 sequence (P04234 22-171, chain 2 of 3): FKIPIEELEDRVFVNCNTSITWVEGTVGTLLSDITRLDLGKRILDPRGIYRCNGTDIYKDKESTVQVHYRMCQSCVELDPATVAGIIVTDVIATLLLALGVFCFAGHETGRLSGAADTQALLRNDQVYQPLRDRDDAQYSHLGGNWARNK
T1 sequence (P09693 23-182, chain 3 of 3): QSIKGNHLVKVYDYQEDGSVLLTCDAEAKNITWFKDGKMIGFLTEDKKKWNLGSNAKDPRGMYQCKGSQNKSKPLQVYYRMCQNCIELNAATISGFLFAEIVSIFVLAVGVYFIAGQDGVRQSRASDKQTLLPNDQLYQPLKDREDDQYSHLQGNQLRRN

B1: Bis-40E9-L2H3-D99E.H (bispecific antibody)
VH: EVQLVQSGAEVKKPGASVKVSCKASGYTFTSYVIHWVRQAPGQGLEWMGYFNPYNDGTKYNEEFKGRVTLTSDKSTSTAYMELRSLRSDDTAVYYCARGGVRRYFDVWGQGTTVTVSS
VL: DIQMTQSPSSLSASVGDRVTITCRASQDIGSNLNWLQQKPGKAIKRLIYATFGLDSGVPSRFSGSRSGTDFTLTISSLQPEDFATYYCQQYASFPYTFGGGTKVEIK
scFv: EVQLVQSGAEVKKPGSSVKVSCKASGYTFSSYVIHWVRQAPGQCLEWMGYINPYNDVIKYNEKFKGRVTLTSDKSTSTAYMELSSLRSEDTAVYYCARESYYSYDGFAYWGQGTLVTVSSGGGGSGGGGSGGGGSGGGGSEIVLTQSPDFQSVTPKEKVTITCSASSSVSYMHWYQQKPDQSPKRLIYDTSKLASGVPSRFSGSGSGTDFTLTINSLEAEDAATYYCQQWSSNPPTFGCGTKVEIK
notes: L234A/L235A
binding result [1]: binds

B4: Bis-40E9-L3H1 (bispecific antibody)
VH: EVQLVQSGAEVKKPGASVKVSCKASGYTFTSYVIHWVRQAPGQGLEWMGYFNPYNDGTKYNEEFKGRVTLTSDKSTSTAYMELRSLRSDDTAVYYCARGGVRRYFDVWGQGTTVTVSS
VL: DIQMTQSPSSLSASVGDRVTITCRASQDIGSNLNWLQQKPGKAIKRLIYATFGLDSGVPSRFSGSRSGTDFTLTISSLQPEDFATYYCQQYASFPYTFGGGTKVEIK
scFv: EVQLVQSGAEVKKPGSSVKVSCKASGGTFSSYVIHWVRQAPGQCLEWMGYINPYNDVIKYNEKFKGRVTITADKSTSTAYMELSSLRSEDTAVYYCARDSYYSYDGFAYWGQGTLVTVSSGGGGSGGGGSGGGGSGGGGSEIVLTQSPDFQSVTPKEKVTITCSASSSVSYMHWYQQKPDQSPKRWIYDTSKLASGVPSRFSGSGSGTDYTLTINSLEAEDAATYYCQQWSSNPPTFGCGTKVEIK
notes: L234A/L235A
binding result [1]: binds

B5: Bis-40E9-L2H1 (bispecific antibody)
VH: EVQLVQSGAEVKKPGASVKVSCKASGYTFTSYVIHWVRQAPGQGLEWMGYFNPYNDGTKYNEEFKGRVTLTSDKSTSTAYMELRSLRSDDTAVYYCARGGVRRYFDVWGQGTTVTVSS
VL: DIQMTQSPSSLSASVGDRVTITCRASQDIGSNLNWLQQKPGKAIKRLIYATFGLDSGVPSRFSGSRSGTDFTLTISSLQPEDFATYYCQQYASFPYTFGGGTKVEIK
scFv: EVQLVQSGAEVKKPGSSVKVSCKASGGTFSSYVIHWVRQAPGQCLEWMGYINPYNDVIKYNEKFKGRVTITADKSTSTAYMELSSLRSEDTAVYYCARDSYYSYDGFAYWGQGTLVTVSSGGGGSGGGGSGGGGSGGGGSEIVLTQSPDFQSVTPKEKVTITCSASSSVSYMHWYQQKPDQSPKRLIYDTSKLASGVPSRFSGSGSGTDFTLTINSLEAEDAATYYCQQWSSNPPTFGCGTKVEIK
notes: Fab-scFv-Fab (2+1): two humanized anti-GPRC5D Fabs and one anti-CD3 scFv (VH-(GGGGS)4-VL) joined by (GGGGS)2 linkers to CH1 of one Fab and to CH2; L234A/L235A
binding result [1]: binds

B8: Bis-108+147-R35S.L (bispecific antibody)
heavy 1: not shown
heavy 2: EVQLVQSGAEVKKPGASVKVSCKASGYTFTSYVIHWVRQAPGQGLEWMGYFNPYNDGTKYNEEFKGRVTLTSDKSTSTAYMELRSLRSDDTAVYYCARGGVRRYFDVWGQGTTVTVSSASTKGPSVFPLAPSSKSTSGGTAALGCLVKDYFPEPVTVSWNSGALTSGVHTFPAVLQSSGLYSLSSVVTVPSSSLGTQTYICNVNHKPSNTKVDKKVEPKSCGGGGSGGGGSEVQLVQSGAEVKKPGSSVKVSCKASGYTFTSYWMHWVRQAPGQCLEWMGNINPSSGATNYNEKFKSRVTLTVDKSTSTAYMELSSLRSEDTAVYYCARDRSSQYYFDYWGQGTTVTVSSGGGGSGGGGSGGGGSGGGGSDIVMTQSPDSLAVSLGERATINCKSSQSLLNSRSSKNYLAWYQQKPGQPPKLLIYWASTRESGVPDRFSGSGSGTDFTLTISSLQAEDVAVYYCTQSYTLRTFGCGTKVEIKGGGGSGGGGSDKTHTCPPCPAPEAAGGPSVFLFPPKPKDTLMISRTPEVTCVVVDVSHEDPEVKFNWYVDGVEVHNAKTKPREEQYNSTYRVVSVLTVLHQDWLNGKEYKCKVSNKALPAPIEKTISKAKGQPREPQVCTLPPSREEMTKNQVSLSCAVKGFYPSDIAVEWESNGQPENNYKTTPPVLDSDGSFFLVSKLTVDKSRWQQGNVFSCSVMHEALHNHYTQKSLSLSPGK
light: DIQMTQSPSSLSASVGDRVTITCRASQDIGSNLNWLQQKPGKAIKRLIYATFGLDSGVPSRFSGSRSGTDFTLTISSLQPEDFATYYCQQYASFPYTFGGGTKVEIKRTVAAPSVFIFPPSDEQLKSGTASVVCLLNNFYPREAKVQWKVDNALQSGNSQESVTEQDSKDSTYSLSSTLTLSKADYEKHKVYACEVTHQGLSSPVTKSFNRGEC
notes: Fab-scFv-Fab format
EC50 (GPRC5D on MM.1S cells [2]): 1.53 nM | Top signal (GPRC5D on MM.1S cells [2]): 1860 MFI | IC50 of T-cell dependent cytotoxicity on MM.1S cells (GPRC5D on MM.1S cells [3]): 1.64 nM | Top (%) target cell killing, MM.1S cells (GPRC5D on MM.1S cells [3]): 102% | EC50, Jurkat-NFAT-Luciferase assay in the presence of MM.1S cells (GPRC5D on MM.1S cells [4]): 1.87 nM | Top RLU, Jurkat-NFAT-Luciferase assay in the presence of MM.1S cells (GPRC5D on MM.1S cells [4]): 344 RLU

The next lines start with results.

binding result [1]: binds
B2: Bis-40E9-L2H3-D56G.H (bispecific antibody)
VH: EVQLVQSGAEVKKPGASVKVSCKASGYTFTSYVIHWVRQAPGQGLEWMGYFNPYNDGTKYNEEFKGRVTLTSDKSTSTAYMELRSLRSDDTAVYYCARGGVRRYFDVWGQGTTVTVSS
VL: DIQMTQSPSSLSASVGDRVTITCRASQDIGSNLNWLQQKPGKAIKRLIYATFGLDSGVPSRFSGSRSGTDFTLTISSLQPEDFATYYCQQYASFPYTFGGGTKVEIK
scFv: EVQLVQSGAEVKKPGSSVKVSCKASGYTFSSYVIHWVRQAPGQCLEWMGYINPYNGVIKYNEKFKGRVTLTSDKSTSTAYMELSSLRSEDTAVYYCARDSYYSYDGFAYWGQGTLVTVSSGGGGSGGGGSGGGGSGGGGSEIVLTQSPDFQSVTPKEKVTITCSASSSVSYMHWYQQKPDQSPKRLIYDTSKLASGVPSRFSGSGSGTDFTLTINSLEAEDAATYYCQQWSSNPPTFGCGTKVEIK
notes: L234A/L235A

binding result [1]: binds
B3: Bis-40E9-L2H3-G106A.H (bispecific antibody)
VH: EVQLVQSGAEVKKPGASVKVSCKASGYTFTSYVIHWVRQAPGQGLEWMGYFNPYNDGTKYNEEFKGRVTLTSDKSTSTAYMELRSLRSDDTAVYYCARGGVRRYFDVWGQGTTVTVSS
VL: DIQMTQSPSSLSASVGDRVTITCRASQDIGSNLNWLQQKPGKAIKRLIYATFGLDSGVPSRFSGSRSGTDFTLTISSLQPEDFATYYCQQYASFPYTFGGGTKVEIK
scFv: EVQLVQSGAEVKKPGSSVKVSCKASGYTFSSYVIHWVRQAPGQCLEWMGYINPYNDVIKYNEKFKGRVTLTSDKSTSTAYMELSSLRSEDTAVYYCARDSYYSYDAFAYWGQGTLVTVSSGGGGSGGGGSGGGGSGGGGSEIVLTQSPDFQSVTPKEKVTITCSASSSVSYMHWYQQKPDQSPKRLIYDTSKLASGVPSRFSGSGSGTDFTLTINSLEAEDAATYYCQQWSSNPPTFGCGTKVEIK
notes: L234A/L235A

binding result [1]: binds
B6: Bis-40E9-L2H4 (bispecific antibody)
VH: EVQLVQSGAEVKKPGASVKVSCKASGYTFTSYVIHWVRQAPGQGLEWMGYFNPYNDGTKYNEEFKGRVTLTSDKSTSTAYMELRSLRSDDTAVYYCARGGVRRYFDVWGQGTTVTVSS
VL: DIQMTQSPSSLSASVGDRVTITCRASQDIGSNLNWLQQKPGKAIKRLIYATFGLDSGVPSRFSGSRSGTDFTLTISSLQPEDFATYYCQQYASFPYTFGGGTKVEIK
scFv: EVQLVQSGAEVKKPGSSVKVSCKASGYTFSSYVIHWVRQAPGQCLEWIGYINPYNDVIKYNEKFKGRATLTSDKSTSTAYMELSSLRSEDTAVYYCARDSYYSYDGFAYWGQGTLVTVSSGGGGSGGGGSGGGGSGGGGSEIVLTQSPDFQSVTPKEKVTITCSASSSVSYMHWYQQKPDQSPKRLIYDTSKLASGVPSRFSGSGSGTDFTLTINSLEAEDAATYYCQQWSSNPPTFGCGTKVEIK
notes: L234A/L235A

EC50 (GPRC5D on MM.1S cells [2]): 2.61 nM | Top signal (GPRC5D on MM.1S cells [2]): 2260 MFI | EC50, Jurkat-NFAT-Luciferase assay in the presence of MM.1S cells (GPRC5D on MM.1S cells [4]): 0.11 nM | Top RLU, Jurkat-NFAT-Luciferase assay in the presence of MM.1S cells (GPRC5D on MM.1S cells [4]): 368 RLU
B7: Bis-108+ch147 (bispecific antibody)
heavy 1: not shown
heavy 2: EVQLVQSGAEVKKPGASVKVSCKASGYTFTSYVIHWVRQAPGQGLEWMGYFNPYNDGTKYNEEFKGRVTLTSDKSTSTAYMELRSLRSDDTAVYYCARGGVRRYFDVWGQGTTVTVSSASTKGPSVFPLAPSSKSTSGGTAALGCLVKDYFPEPVTVSWNSGALTSGVHTFPAVLQSSGLYSLSSVVTVPSSSLGTQTYICNVNHKPSNTKVDKKVEPKSCGGGGSGGGGSQVQLQQPGTELVKPGTSVKLSCKASGYTFTSYWMHWVKQRPGQCLEWIGNINPSNGATNYNEKFKSKATLTVDKSSSTAYMQLSSLTSEDSAVYYCARDRSSQYYFDYWGQGTTLTVSSGGGGSGGGGSGGGGSGGGGSDIVMSQSPSSLAVSAGEKVTMSCKSSQSLLNSRSRKNYLAWYQQKPGQSPKLLIYWASTRESGVPDRFTGSGSGTDFTLTISSVQAEDLAVYYCTQSYTLRTFGCGTKLEIKGGGGSGGGGSDKTHTCPPCPAPEAAGGPSVFLFPPKPKDTLMISRTPEVTCVVVDVSHEDPEVKFNWYVDGVEVHNAKTKPREEQYNSTYRVVSVLTVLHQDWLNGKEYKCKVSNKALPAPIEKTISKAKGQPREPQVCTLPPSREEMTKNQVSLSCAVKGFYPSDIAVEWESNGQPENNYKTTPPVLDSDGSFFLVSKLTVDKSRWQQGNVFSCSVMHEALHNHYTQKSLSLSPGK
light: DIQMTQSPSSLSASVGDRVTITCRASQDIGSNLNWLQQKPGKAIKRLIYATFGLDSGVPSRFSGSRSGTDFTLTISSLQPEDFATYYCQQYASFPYTFGGGTKVEIKRTVAAPSVFIFPPSDEQLKSGTASVVCLLNNFYPREAKVQWKVDNALQSGNSQESVTEQDSKDSTYSLSSTLTLSKADYEKHKVYACEVTHQGLSSPVTKSFNRGEC
notes: Fab-scFv-Fab format
IC50 of T-cell dependent cytotoxicity on MM.1S cells (GPRC5D on MM.1S cells [3]): 0.53 nM | Top (%) target cell killing, MM.1S cells (GPRC5D on MM.1S cells [3]): 99.4%
